In patent US20070196376A1 (AstraZeneca / MedImmune, published 2007):
Changes are numbered by the printed parent chain. Each block holds one binder with its values, some of them ahead of it.

What was measured:
[1] = molecular target: T1, human insulin (human, UniProt P01308 25-54; P01308 90-110, limits assumed); experiment: Biacore, mAb on CM5 chip, insulin injected
T1 construct: The mature hormone has an A and a B chain cut from the precursor; also called recombinant insulin; hu-Insulin

[2] = molecular target: T2, Recombinant human IGF-I (insulin-like growth factor-I) (human, UniProt P05019 49-118); experiment: limited antigen ELISA, supernatant 1:25
T2 construct: Bought; also called IGF1; IGF-1

[3] = molecular target: T3, Recombinant human IGF-II (insulin-like growth factor-II) (human, UniProt P01344 25-91); experiment: limited antigen ELISA, supernatant 1:25
T3 construct: Bought; also called IGF2; IGF-2

[4] = molecular target: T4, IGF-I/IGFBP-3 complex (UniProt P05019 49-118); experiment: Biacore, mAb immobilised, preformed complex injected
T4 construct: Preformed non-covalent complex; IGF-I 99.97% complexed by IGFBP-3; also called complexed IGF-I/IGFBP-3

[5] = molecular target: T5, IGF-II/IGFBP-3 complex (UniProt P01344 25-91); experiment: as above
T5 construct: Preformed non-covalent complex; IGF-II 99.97% complexed by IGFBP-3; also called complexed IGF-II/IGFBP-3

[6] = molecular target: T6, human insulin-like growth factor-I (IGF-I) (human, UniProt P05019 49-118); experiment: cell-based or functional assay
[7] = molecular target: T7, human insulin-like growth factor-II (IGF-II) (human, UniProt P01344 25-91); experiment: cell-based or functional assay
[8] = molecular target: T6, human insulin-like growth factor-I …; experiment: cell-based or functional assay; remark: listed apart in the source
[9] = molecular target: T7, human insulin-like growth factor-II …; experiment: cell-based or functional assay; remark: listed apart in the source
[10] = molecular target: T6, human insulin-like growth factor-I …; experiment: cell-based or functional assay; remark: listed apart in the source
[11] = molecular target: T7, human insulin-like growth factor-II …; experiment: cell-based or functional assay; remark: listed apart in the source
[12] = molecular target: T7, human insulin-like growth factor-II …; experiment: cell-based or functional assay; remark: listed apart in the source
[13] = molecular target: mouse IGF-I (mouse, UniProt P05017 49-118); experiment: cell-based or functional assay
[14] = molecular target: mouse IGF-II (mouse, UniProt P09535 25-91); experiment: cell-based or functional assay
[15] = molecular target: T6, human insulin-like growth factor-I …; experiment: Biacore low-resolution analysis, IGF-I
[16] = molecular target: T7, human insulin-like growth factor-II …; experiment: Biacore low-resolution analysis, IGF-II
[17] = molecular target: T6, human insulin-like growth factor-I …; experiment: Biacore low-resolution screen, mAb captured, IGF-I injected
[18] = molecular target: T7, human insulin-like growth factor-II …; experiment: Biacore low-resolution screen, mAb captured, IGF-II injected
[19] = molecular target: T6, human insulin-like growth factor-I …; experiment: Biacore high-resolution, mAb captured, IGF-I injected over a range of concentrations
[20] = molecular target: T7, human insulin-like growth factor-II …; experiment: Biacore high-resolution, mAb captured, IGF-II injected over a range of concentrations

binding result [1]: no binding (tested: 502 nM)
LA OD, IGF1 2 ng/ml [2]: 0.56 OD 450 nm
LA OD, IGF1 4 ng/ml [2]: 0.98 OD 450 nm
LA OD, IGF2 2 ng/ml [3]: 1.65 OD 450 nm
LA OD, IGF2 4 ng/ml [3]: 2.47 OD 450 nm
Kd [4]: > 1000 nM
Kd [5]: > 1000 nM
B1: mAb 7.159.2 (ATCC Accession Number PTA-7424) (antibody, V domains shown)
VH: QVQLVQSGAEVKKPGASVKVSCKASGYTFTSYDINWVRQATGQGLEWMGWMNPNSGNTGYAQKFQGRVTMTRNTSISTAYMELSSLRSEDTAVYYCARDPYYYYYGMDVWGQGTTVTVSS
VL: QSVLTQPPSVSAAPGQKVTISCSGSSSNIENNHVSWYQQLPGTAPKLLIYDNNKRPSGIPDRFSGSKSGTSATLGITGLQTGDEADYYCETWDTSLSAGRVFGGGTKLTVLG
notes: Fully human, lambda light chain (V1-19/JL2); also called 7.159.1; 7_159_1

% MAX Activation, mean (n = 2), IGF-I pTYR of hIGF-IR in NIH3T3 cells [6]: 16.9%
EC50 (nM), mean (n = 2), IGF-I pTYR of hIGF-IR in NIH3T3 cells [6]: 14.5 nM
% MAX Activation, mean (n = 2), IGF-II pTYR of hIGF-IR in NIH3T3 cells [7]: 15.9%
EC50 (nM), mean (n = 2), IGF-II pTYR of hIGF-IR in NIH3T3 cells [7]: 3 nM
% Inhibition, mean (n = 3), IGF-I Proliferation Assay, NIH3T3/hIGF-IR cells [8]: 72.4%
EC50 (nM), mean (n = 3), IGF-I Proliferation Assay, NIH3T3/hIGF-IR cells [8]: 38.9 nM
% Inhibition, mean (n = 2), IGF-II Proliferation Assay, NIH3T3/hIGF-IR cells [9]: 79.2%
EC50 (nM), mean (n = 2), IGF-II Proliferation Assay, NIH3T3/hIGF-IR cells [9]: 22 nM
EC50 (nM), n = 1, IGF-I pTYR, BxPC3 cells [10]: 7.5 nM
EC50 (nM), n = 2, IGF-I pTYR, BxPC3 cells [10]: 5.3 nM
Max % Inhibition (333.3 nM), n = 1, IGF-I pTYR, BxPC3 cells [10]: 95.7%
Max % Inhibition (333.3 nM), n = 2, IGF-I pTYR, BxPC3 cells [10]: 95.2%
EC50 (nM), n = 2, IGF-II pTYR, BxPC3 cells [11]: 2.6 nM
Max % Inhibition (133.3 nM), n = 2, IGF-II pTYR, BxPC3 cells [11]: 91.3%
Max % Inhibition (333.3 nM), n = 1, IGF-II pTYR, BxPC3 cells [11]: 100%
EC50 (nM), n = 1, IGF-II Proliferation, BxPC3 cells [12]: 0.5 nM
EC50 (nM), n = 2, IGF-II Proliferation, BxPC3 cells [12]: 4.4 nM
Max % Inhibition (133.3 nM), n = 2, IGF-II Proliferation, BxPC3 cells [12]: 105%
Max % Inhibition (333.3 nM), n = 1, IGF-II Proliferation, BxPC3 cells [12]: 128%
Mouse IGF-I EC50 (nM), n = 1, phosphorylation of hIGF-IR in NIH3T3 cells [13]: 6.7 nM
Mouse IGF-I EC50 (nM), n = 2, phosphorylation of hIGF-IR in NIH3T3 cells [13]: 10.6 nM
Mouse IGF-II EC50 (nM), n = 1, phosphorylation of hIGF-IR in NIH3T3 cells [14]: 5.4 nM
Mouse IGF-II EC50 (nM), n = 2, phosphorylation of hIGF-IR in NIH3T3 cells [14]: 8.7 nM
Kd [15]: 0.935 nM
Kd [16]: 0.123 nM
Kd [17]: 0.935 nM
koff [17]: 0.0043 s⁻¹
kon [17]: 4.6e+06 M⁻¹ s⁻¹
Kd [18]: 0.123 nM
koff [18]: 0.00043 s⁻¹
kon [18]: 3.5e+06 M⁻¹ s⁻¹
Kd [19]: 0.452 nM
Kd [20]: 0.0474 nM
B2: mAb 7.251.3 (antibody, V domains shown)
VH: QVQLQESGPGLVKPSETLSLTCTVSGGSISSYYWSWIRQPPGKGLEWIGYFFYSGYTNYNPSLKSRVTISVDTSKNQFSLKLSSVTAADTAVYYCACITGTTKGGMDVWGQGTTVTVSS
VL: QSVLTQPPSVSGAPGQRVTISCTGSSSNIGAGYDVHWYQQLPGTAPKLLIYGNNNRPSGVPDRFSGSKSGTSASLAITGLQADDEADYYCQSFDSSLSGSVFGGGTKLTVLG
notes: Fully human XenoMouse hybridoma mAb, lambda light chain (V1-13/JL2); also called ATCC PTA-7422

Second part, the binder before the results:

B3: mAb 7.34.1 (ATCC Accession Number PTA-7423) (antibody, V domains shown)
VH: B2 VH with K43R, I69M, T113A
VL: B2 VL with P7A, S25R, L41F, N54S, D83E, F93Y
notes: Fully human, lambda light chain (V1-13/JL2)
binding result [1]: no binding (tested: 502 nM)
LA OD, IGF1 2 ng/ml [2]: 0.21 OD 450 nm
LA OD, IGF1 4 ng/ml [2]: 0.44 OD 450 nm
LA OD, IGF2 2 ng/ml [3]: 1.07 OD 450 nm
LA OD, IGF2 4 ng/ml [3]: 1.84 OD 450 nm
Kd [4]: > 1000 nM
Kd [5]: > 1000 nM

B4: mAb 7.251.3 (ATCC Accession Number PTA-7422) (antibody, V domains shown)
VH: B2 VH
VL: B2 VL
notes: as for B3
binding result [1]: no binding (tested: 502 nM)
LA OD, IGF1 2 ng/ml [2]: 1.09 OD 450 nm
LA OD, IGF1 4 ng/ml [2]: 1.31 OD 450 nm
LA OD, IGF2 2 ng/ml [3]: 1.02 OD 450 nm
LA OD, IGF2 4 ng/ml [3]: 1.53 OD 450 nm
Kd [4]: > 1000 nM
Kd [5]: > 1000 nM
